Earlier results as cited in patent US7776558B2, “Human G protein-coupled receptor and modulators thereof for the treatment of cell death-related disorders” (Arena Pharmaceuticals, Inc., priority 2003, dated 2010).

Legend:
FPRL2 = target: T1, FPRL2 (Homo sapiens, UniProt P25089); details: cited from earlier work
T1 sequence (P25089 1-353): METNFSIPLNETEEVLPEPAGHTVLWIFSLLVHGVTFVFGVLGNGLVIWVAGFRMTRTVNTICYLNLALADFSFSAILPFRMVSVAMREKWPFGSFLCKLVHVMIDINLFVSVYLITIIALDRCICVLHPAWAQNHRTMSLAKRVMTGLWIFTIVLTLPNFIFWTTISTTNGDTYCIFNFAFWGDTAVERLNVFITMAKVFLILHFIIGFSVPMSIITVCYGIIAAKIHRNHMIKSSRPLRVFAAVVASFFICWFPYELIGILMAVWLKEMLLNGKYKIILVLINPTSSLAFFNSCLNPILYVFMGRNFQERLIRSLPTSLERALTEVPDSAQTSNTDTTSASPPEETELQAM

[1] = target: T2, FPRL2 on mature human dendritic cells (Homo sapiens, UniProt P25089); details: Yang et al. 2002; cited from earlier work
T2 construct: host or cells: mature human dendritic cells
T2 sequence (P25089 1-353): T1 sequence (P25089 1-353)

| Compound | Ligand status at FPRL2 (FPRL2) | Binding to FPRL2 [1] | Intracellular Ca2+ [1] |
| --- | --- | --- | --- |
| CCCCC[C@H](O)/C=C/C=C\C=C\C=C\[C@@H](O)[C@@H](O)CCCC(=O)O [lipoxin A4] | shown not to be ligands for FPRL2 |  |  |
| WKYMVm |  | bind to FPRL2 on mature human dendritic cells | elicit an increase in intracellular Ca^2+ |
